According to article PMC9482650, “Quantitative fragmentomics allow affinity mapping of interactomes” (Nature Communications, 2022):

What was measured:
Test in all cases: holdup assay
Parameters in all cases: key: below the threshold = too weak to quantify, mostly under pKd 3.1 to 4
AHNAK1, Q09666 = target: AHNAK1, Q09666
APBA1_1, Q02410 = target: T1, APBA1_1, Q02410
T1 sequence (Q02410 651-752, limits assumed, looked up): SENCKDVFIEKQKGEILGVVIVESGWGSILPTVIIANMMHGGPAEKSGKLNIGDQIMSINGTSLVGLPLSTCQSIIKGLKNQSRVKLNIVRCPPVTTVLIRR

ARHGEF12, Q9NZN5-2 = target: ARHGEF12, Q9NZN5-2
ARHGEF12, Q9NZN5-2, sequence (Q9NZN5 other isoform, or with tags, fused parts or gaps): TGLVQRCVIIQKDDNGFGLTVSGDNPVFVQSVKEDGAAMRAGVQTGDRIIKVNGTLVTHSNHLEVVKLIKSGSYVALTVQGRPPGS

DFNB31_2, Q9P202 = target: T2, DFNB31_2, Q9P202
T2 sequence (Q9P202 274-371, limits assumed, looked up): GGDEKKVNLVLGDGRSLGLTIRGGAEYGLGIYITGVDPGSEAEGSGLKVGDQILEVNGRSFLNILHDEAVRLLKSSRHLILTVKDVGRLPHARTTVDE

DLG1_2, Q12959 = target: DLG1_2, Q12959
DLG1_2, Q12959, sequence (Q12959 314-412): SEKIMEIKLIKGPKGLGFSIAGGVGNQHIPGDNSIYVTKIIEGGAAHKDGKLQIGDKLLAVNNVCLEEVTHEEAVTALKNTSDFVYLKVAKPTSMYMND

DLG2_3, Q15700 = target: DLG2_3, Q15700
DLG4_2, P78352 = target: DLG4_2, P78352
DLG4_2, P78352, sequence (P78352 155-259): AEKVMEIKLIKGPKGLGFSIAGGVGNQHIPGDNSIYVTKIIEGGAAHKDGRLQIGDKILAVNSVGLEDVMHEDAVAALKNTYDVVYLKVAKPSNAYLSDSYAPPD

DLG4_3, P78352 = target: DLG4_3, P78352
DLG4_3, P78352, sequence (P78352 306-403): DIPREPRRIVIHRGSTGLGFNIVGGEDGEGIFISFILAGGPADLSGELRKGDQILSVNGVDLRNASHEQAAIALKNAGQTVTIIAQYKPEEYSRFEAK

DLG5_1, Q8TDM6 = target: DLG5_1, Q8TDM6
DLG5_1, Q8TDM6, sequence (Q8TDM6 617-713): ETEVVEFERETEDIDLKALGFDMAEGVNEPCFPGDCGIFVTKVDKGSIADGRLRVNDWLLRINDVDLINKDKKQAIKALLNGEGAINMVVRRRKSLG

GOPC, Q9HD26 = target: GOPC, Q9HD26
GORASP2, Q9H8Y8 = target: GORASP2, Q9H8Y8
GRID2IP_2, A4D2P6 = target: GRID2IP_2, A4D2P6
GRID2IP_2, A4D2P6, sequence (A4D2P6 272-370): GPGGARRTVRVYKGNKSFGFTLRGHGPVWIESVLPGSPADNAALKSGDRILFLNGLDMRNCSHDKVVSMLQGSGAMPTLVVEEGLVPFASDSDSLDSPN

GRIP2_3, Q9C0E4 = target: GRIP2_3, Q9C0E4
GRIP2_3, Q9C0E4, sequence (Q9C0E4 238-339): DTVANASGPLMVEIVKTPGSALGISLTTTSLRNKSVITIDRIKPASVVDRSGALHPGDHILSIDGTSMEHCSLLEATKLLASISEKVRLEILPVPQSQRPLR

GRIP2_5, Q9C0E4 = target: GRIP2_5, Q9C0E4
GRIP2_5, Q9C0E4, sequence (Q9C0E4 544-642): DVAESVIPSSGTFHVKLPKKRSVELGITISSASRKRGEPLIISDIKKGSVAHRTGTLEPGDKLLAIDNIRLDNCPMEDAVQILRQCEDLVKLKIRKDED

IL16_3, Q14005 = target: IL16_3, Q14005
IL16_3, Q14005, sequence (Q14005 1107-1207): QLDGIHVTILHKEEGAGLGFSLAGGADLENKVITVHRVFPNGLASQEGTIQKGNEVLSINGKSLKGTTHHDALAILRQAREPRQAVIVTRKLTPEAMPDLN

Inadl_2, Q8NI35 = target: Inadl_2, Q8NI35
Inadl_2, Q8NI35, sequence (Q8NI35 238-335): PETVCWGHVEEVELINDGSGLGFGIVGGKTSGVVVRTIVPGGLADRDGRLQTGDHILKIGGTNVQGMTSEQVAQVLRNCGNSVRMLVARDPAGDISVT

Inadl_3, Q8NI35 = target: Inadl_3, Q8NI35
Inadl_3, Q8NI35, sequence (Q8NI35 359-469): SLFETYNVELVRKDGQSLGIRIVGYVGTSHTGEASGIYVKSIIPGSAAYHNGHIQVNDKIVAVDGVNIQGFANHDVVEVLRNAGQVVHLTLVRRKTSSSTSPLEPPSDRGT

MPDZ_5, O75970 = target: T3, MPDZ_5, O75970
T3 sequence (O75970 695-796, limits assumed, looked up): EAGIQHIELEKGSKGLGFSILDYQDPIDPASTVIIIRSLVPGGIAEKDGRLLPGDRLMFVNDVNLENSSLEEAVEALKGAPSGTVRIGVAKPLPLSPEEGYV

NHERF3_1, Q5T2W1 = target: T4, NHERF3_1, Q5T2W1
T4 sequence (Q5T2W1 4-100, limits assumed, looked up): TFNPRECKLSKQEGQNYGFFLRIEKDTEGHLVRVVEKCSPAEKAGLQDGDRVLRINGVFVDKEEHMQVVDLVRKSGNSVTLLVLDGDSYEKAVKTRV

NHERF4_1, Q86UT5-2 = target: NHERF4_1, Q86UT5-2
NHERF4_1, Q86UT5-2, sequence (Q86UT5 other isoform, or with tags, fused parts or gaps): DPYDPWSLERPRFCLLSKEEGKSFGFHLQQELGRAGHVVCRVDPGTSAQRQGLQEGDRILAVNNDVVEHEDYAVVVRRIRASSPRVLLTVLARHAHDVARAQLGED

PARD3B_1, Q8TEW8 = target: T5, PARD3B_1, Q8TEW8
T5 sequence (Q8TEW8 196-299, limits assumed, looked up): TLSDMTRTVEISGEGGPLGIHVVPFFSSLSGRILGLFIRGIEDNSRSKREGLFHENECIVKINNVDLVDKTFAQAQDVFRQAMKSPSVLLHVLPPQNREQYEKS

PICK1, Q9NRD5 = target: PICK1, Q9NRD5
PICK1, Q9NRD5, sequence (Q9NRD5 17-115): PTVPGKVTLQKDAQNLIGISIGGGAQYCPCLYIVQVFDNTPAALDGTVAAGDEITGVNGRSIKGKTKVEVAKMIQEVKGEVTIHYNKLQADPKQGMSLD

SCRIB_2, Q14160 = target: SCRIB_2, Q14160
SCRIB_2, Q14160, sequence (Q14160 857-960): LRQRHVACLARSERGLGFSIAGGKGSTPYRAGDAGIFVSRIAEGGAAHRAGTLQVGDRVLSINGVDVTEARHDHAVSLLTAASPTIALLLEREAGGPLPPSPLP

SHANK1, Q9Y566 = target: T6, SHANK1, Q9Y566
T6 sequence (Q9Y566 658-767, limits assumed, looked up): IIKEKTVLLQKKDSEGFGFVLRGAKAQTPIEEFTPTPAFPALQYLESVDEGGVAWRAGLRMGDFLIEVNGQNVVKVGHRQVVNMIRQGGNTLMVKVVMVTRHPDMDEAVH

SNTA1, Q13424 = target: T7, SNTA1, Q13424
T7 sequence (Q13424 82-180, limits assumed, looked up): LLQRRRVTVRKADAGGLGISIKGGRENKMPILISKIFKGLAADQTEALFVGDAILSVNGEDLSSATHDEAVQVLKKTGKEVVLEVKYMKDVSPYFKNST

SNTG2, Q9NY99 = target: T8, SNTG2, Q9NY99
T8 sequence (Q9NY99 68-166, limits assumed, looked up): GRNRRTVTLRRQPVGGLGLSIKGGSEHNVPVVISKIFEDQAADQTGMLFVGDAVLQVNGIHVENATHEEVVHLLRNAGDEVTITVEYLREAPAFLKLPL

SNX27, Q96L92 = target: SNX27, Q96L92
TIAM2, Q8IVF5 = target: T9, TIAM2, Q8IVF5
T9 sequence (Q8IVF5 885-986, limits assumed, looked up): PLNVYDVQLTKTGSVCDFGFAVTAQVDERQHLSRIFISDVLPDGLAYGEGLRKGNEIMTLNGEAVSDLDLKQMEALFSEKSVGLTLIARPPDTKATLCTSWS

TJP1_3, Q07157 = target: TJP1_3, Q07157
TJP1_3, Q07157, sequence (Q07157 416-512): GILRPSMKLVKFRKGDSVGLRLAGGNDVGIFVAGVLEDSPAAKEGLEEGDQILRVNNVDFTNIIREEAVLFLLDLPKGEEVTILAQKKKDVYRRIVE

[1] = plain residues with an end cap or a label only (N-terminal biotin on a linker: ttds)
[2] = plain residues with an end cap or a label only (N-terminal biotin on a linker: ahx)

AHNAK1, Q09666, sequence (Q09666 4-100): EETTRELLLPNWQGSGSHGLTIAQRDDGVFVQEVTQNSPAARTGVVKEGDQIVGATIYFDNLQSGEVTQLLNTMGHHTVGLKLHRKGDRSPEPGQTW

B1: FAT3, Q8TDW7 (peptide)
chain: FVETQHQTQV
- pKd (AHNAK1, Q09666; [1]): 3.52
- pKd (APBA1_1, Q02410; [1]): below the threshold
- pKd (ARHGEF12, Q9NZN5-2; [1]): 3.88
- pKd (DFNB31_2, Q9P202; [1]): below the threshold
- pKd (DLG1_2, Q12959; [1]): 4.95
- pKd (DLG2_3, Q15700; [1]): 3.59
- pKd (DLG4_2, P78352; [1]): 4.57
- pKd (DLG4_3, P78352; [1]): below the threshold
- pKd (DLG5_1, Q8TDM6; [1]): below the threshold
- pKd (GOPC, Q9HD26; [1]): 3.76
- pKd (GORASP2, Q9H8Y8; [1]): below the threshold
- pKd (GRID2IP_2, A4D2P6; [1]): 3.59
- pKd (GRIP2_3, Q9C0E4; [1]): below the threshold
- pKd (GRIP2_5, Q9C0E4; [1]): below the threshold
- pKd (IL16_3, Q14005; [1]): below the threshold
- pKd (Inadl_2, Q8NI35; [1]): 3.56
- pKd (Inadl_3, Q8NI35; [1]): below the threshold
- pKd (MPDZ_5, O75970; [1]): below the threshold
- pKd (NHERF3_1, Q5T2W1; [1]): 4.72
- pKd (NHERF4_1, Q86UT5-2; [1]): below the threshold
- pKd (PARD3B_1, Q8TEW8; [1]): below the threshold
- pKd (PICK1, Q9NRD5; [1]): below the threshold
- pKd (SCRIB_2, Q14160; [1]): 4.15
- pKd (SHANK1, Q9Y566; [1]): 3.63
- pKd (SNTA1, Q13424; [1]): 4.09
- pKd (SNTG2, Q9NY99; [1]): 3.82
- pKd (SNX27, Q96L92; [1]): 4.53
- pKd (TIAM2, Q8IVF5; [1]): below the threshold
- pKd (TJP1_3, Q07157; [1]): below the threshold

B2: HPV33-E6, P06427 (peptide)
chain: SRSRRRETAL
- pKd (AHNAK1, Q09666; [1]): 3.62
- pKd (APBA1_1, Q02410; [1]): below the threshold
- pKd (ARHGEF12, Q9NZN5-2; [1]): 4.78
- pKd (DFNB31_2, Q9P202; [1]): 3.55
- pKd (DLG1_2, Q12959; [1]): 5.14
- pKd (DLG2_3, Q15700; [1]): 5.23
- pKd (DLG4_2, P78352; [1]): 4.77
- pKd (DLG4_3, P78352; [1]): 5.32
- pKd (DLG5_1, Q8TDM6; [1]): below the threshold
- pKd (GOPC, Q9HD26; [1]): 3.97
- pKd (GORASP2, Q9H8Y8; [1]): 4.26
- pKd (GRID2IP_2, A4D2P6; [1]): 4.18
- pKd (GRIP2_3, Q9C0E4; [1]): below the threshold
- pKd (GRIP2_5, Q9C0E4; [1]): below the threshold
- pKd (IL16_3, Q14005; [1]): below the threshold
- pKd (Inadl_2, Q8NI35; [1]): below the threshold
- pKd (Inadl_3, Q8NI35; [1]): below the threshold
- pKd (MPDZ_5, O75970; [1]): below the threshold
- pKd (NHERF3_1, Q5T2W1; [1]): 5.49
- pKd (NHERF4_1, Q86UT5-2; [1]): 4.42
- pKd (PARD3B_1, Q8TEW8; [1]): 3.43
- pKd (PICK1, Q9NRD5; [1]): below the threshold
- pKd (SCRIB_2, Q14160; [1]): 4.61
- pKd (SHANK1, Q9Y566; [1]): 3.51
- pKd (SNTA1, Q13424; [1]): 4.66
- pKd (SNTG2, Q9NY99; [1]): 4.48
- pKd (SNX27, Q96L92; [1]): 4.91
- pKd (TIAM2, Q8IVF5; [1]): below the threshold
- pKd (TJP1_3, Q07157; [1]): below the threshold

B3: RAPGEF6, Q8TEU7 (peptide)
chain: ADENEQVSAV
- pKd (AHNAK1, Q09666; [2]): below the threshold
- pKd (APBA1_1, Q02410; [2]): below the threshold
- pKd (ARHGEF12, Q9NZN5-2; [2]): 3.83
- pKd (DFNB31_2, Q9P202; [2]): below the threshold
- pKd (DLG1_2, Q12959; [2]): 4.01
- pKd (DLG2_3, Q15700; [2]): 3.63
- pKd (DLG4_2, P78352; [2]): 4.05
- pKd (DLG4_3, P78352; [2]): below the threshold
- pKd (DLG5_1, Q8TDM6; [2]): below the threshold
- pKd (GOPC, Q9HD26; [2]): below the threshold
- pKd (GORASP2, Q9H8Y8; [2]): below the threshold
- pKd (GRID2IP_2, A4D2P6; [2]): 4.19
- pKd (GRIP2_3, Q9C0E4; [2]): below the threshold
- pKd (GRIP2_5, Q9C0E4; [2]): below the threshold
- pKd (IL16_3, Q14005; [2]): below the threshold
- pKd (Inadl_2, Q8NI35; [2]): below the threshold
- pKd (Inadl_3, Q8NI35; [2]): 3.63
- pKd (MPDZ_5, O75970; [2]): below the threshold
- pKd (NHERF3_1, Q5T2W1; [2]): 3.53
- pKd (NHERF4_1, Q86UT5-2; [2]): below the threshold
- pKd (PARD3B_1, Q8TEW8; [2]): below the threshold
- pKd (PICK1, Q9NRD5; [2]): below the threshold
- pKd (SCRIB_2, Q14160; [2]): below the threshold
- pKd (SHANK1, Q9Y566; [2]): 3.88
- pKd (SNTA1, Q13424; [2]): 3.64
- pKd (SNTG2, Q9NY99; [2]): below the threshold
- pKd (SNX27, Q96L92; [2]): 5.07
- pKd (TIAM2, Q8IVF5; [2]): below the threshold
- pKd (TJP1_3, Q07157; [2]): below the threshold

B4: NET1, Q7Z628 (peptide)
chain: SGGKRKETLV
- pKd (AHNAK1, Q09666; [1]): 3.56
- pKd (APBA1_1, Q02410; [1]): below the threshold
- pKd (ARHGEF12, Q9NZN5-2; [1]): 3.74
- pKd (DFNB31_2, Q9P202; [1]): below the threshold
- pKd (DLG1_2, Q12959; [1]): 5.78
- pKd (DLG2_3, Q15700; [1]): 5.21
- pKd (DLG4_2, P78352; [1]): 5.77
- pKd (DLG4_3, P78352; [1]): 4.92
- pKd (DLG5_1, Q8TDM6; [1]): below the threshold
- pKd (GOPC, Q9HD26; [1]): 3.82
- pKd (GORASP2, Q9H8Y8; [1]): 4.03
- pKd (GRID2IP_2, A4D2P6; [1]): 3.56
- pKd (GRIP2_3, Q9C0E4; [1]): below the threshold
- pKd (GRIP2_5, Q9C0E4; [1]): below the threshold
- pKd (IL16_3, Q14005; [1]): below the threshold
- pKd (Inadl_2, Q8NI35; [1]): below the threshold
- pKd (Inadl_3, Q8NI35; [1]): below the threshold
- pKd (MPDZ_5, O75970; [1]): below the threshold
- pKd (NHERF3_1, Q5T2W1; [1]): 4.35
- pKd (NHERF4_1, Q86UT5-2; [1]): below the threshold
- pKd (PARD3B_1, Q8TEW8; [1]): 3.52
- pKd (PICK1, Q9NRD5; [1]): below the threshold
- pKd (SCRIB_2, Q14160; [1]): 3.54
- pKd (SHANK1, Q9Y566; [1]): below the threshold
- pKd (SNTA1, Q13424; [1]): 4.25
- pKd (SNTG2, Q9NY99; [1]): 4.17
- pKd (SNX27, Q96L92; [1]): 4.33
- pKd (TIAM2, Q8IVF5; [1]): below the threshold
- pKd (TJP1_3, Q07157; [1]): below the threshold
